{"source": "the RNAGym collection of RNA variant scans (doi:10.1073/pnas.2313332121)", "parents": {"B1": {"name": "TPR t1 (parent)", "chain": "GACCAAUCUGCCCUCAGAGCUCGAGAACAUCUUCGGAUGCAGAGGAGGCAGGCUUCGGUGGCGCGAUAGCGCCAACGUCCUCAACCUCCAAUGCAUCCCACCACAUGAUGAUGCCUGAAGAGCCUUGGUUUUUUG"}}}
{"variants_of": "B1", "assay": "polymerase ribozyme fitness, log enrichment relative to wild type (log ratio); higher = more active; in vitro selection for triplet polymerase activity", "procedure,_shortened": "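After PCR construction and transcription, each subunit's mutant library from a heterodimeric triplet polymerase ribozyme was annealed with a biotinylated primer, the partner subunit and triplets. Incubation was frozen, at −7 °C, and extended constructs were gel-excised, bound to streptavidin beads and amplified by RT-PCR, in one selection round done in triplicate. Fitness is the logarithm of a genotype's enrichment divided by that of the wild type, from inverse-variance-weighted replicate averages of Illumina-sequenced inputs and outputs. The base of the logarithm is 2, and genotypes needed ≥10 input reads and ≥1 read per output.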"}
{"variant": "C49A A75U C85G", "polymerase ribozyme fitness (log ratio)": -1.4}
{"variant": "C49A A83C A84U", "polymerase ribozyme fitness (log ratio)": -0.775}
{"variant": "C49A A90C A103U C114A", "polymerase ribozyme fitness (log ratio)": -7.25}
{"variant": "C49A A121U", "polymerase ribozyme fitness (log ratio)": 1.97}
{"variant": "C49A C53A C70U C86A U112G G128A", "polymerase ribozyme fitness (log ratio)": -5.42}
{"variant": "C49A C53G C73U A74G A100U", "polymerase ribozyme fitness (log ratio)": -2.75}
{"variant": "C49A C56A U131C U133A", "polymerase ribozyme fitness (log ratio)": -0.929}
{"variant": "C49A C56U", "polymerase ribozyme fitness (log ratio)": 0.0901}
{"variant": "C49A C56U G110C", "polymerase ribozyme fitness (log ratio)": -5.23}
{"variant": "C49A C56U G120C U131G", "polymerase ribozyme fitness (log ratio)": 1.43}
{"variant": "C49A C62G", "polymerase ribozyme fitness (log ratio)": -2.22}
{"variant": "C49A C62G C76U", "polymerase ribozyme fitness (log ratio)": -5.79}
{"variant": "C49A C62U A66G", "polymerase ribozyme fitness (log ratio)": -1.75}
{"variant": "C49A C64U", "polymerase ribozyme fitness (log ratio)": -0.082}
{"variant": "C49A C64U A66C C80A G117A", "polymerase ribozyme fitness (log ratio)": -7.53}
{"variant": "C49A C70G U130C", "polymerase ribozyme fitness (log ratio)": -3.2}
{"variant": "C49A C70U", "polymerase ribozyme fitness (log ratio)": -1.18}
{"variant": "C49A C72A", "polymerase ribozyme fitness (log ratio)": 0.275}
{"variant": "C49A C72U", "polymerase ribozyme fitness (log ratio)": -1.37}
{"variant": "C49A C82A G110A", "polymerase ribozyme fitness (log ratio)": -1.04}
{"variant": "C49A C82U G93C C99U G122U", "polymerase ribozyme fitness (log ratio)": -3.82}
{"variant": "C49A C85A", "polymerase ribozyme fitness (log ratio)": -1.43}
{"variant": "C49A C102G C114U C115G", "polymerase ribozyme fitness (log ratio)": -6.27}
{"variant": "C49A C124A", "polymerase ribozyme fitness (log ratio)": 1.63}
{"variant": "C49A G51U C56A", "polymerase ribozyme fitness (log ratio)": -2.24}
{"variant": "C49A G51U G52U A90G A119U", "polymerase ribozyme fitness (log ratio)": -2.42}
{"variant": "C49A G52U A105U", "polymerase ribozyme fitness (log ratio)": -3.88}
{"variant": "C49A G57U G60U G113A", "polymerase ribozyme fitness (log ratio)": -1.65}
{"variant": "C49A G57U G127U", "polymerase ribozyme fitness (log ratio)": -1.6}
{"variant": "C49A G61U U81C G128U", "polymerase ribozyme fitness (log ratio)": -4.52}
{"variant": "C49A G63A", "polymerase ribozyme fitness (log ratio)": -0.725}
{"variant": "C49A G63U C94U A118G", "polymerase ribozyme fitness (log ratio)": -1.43}
{"variant": "C49A G69A G77A G122A", "polymerase ribozyme fitness (log ratio)": -4.61}
{"variant": "C49A G69C", "polymerase ribozyme fitness (log ratio)": -1.8}
{"variant": "C49A G69C A83C A84U", "polymerase ribozyme fitness (log ratio)": -4.35}
{"variant": "C49A G71U G120U", "polymerase ribozyme fitness (log ratio)": 0.255}
{"variant": "C49A G77C C88A", "polymerase ribozyme fitness (log ratio)": -1.31}
{"variant": "C49A G93U U125A U131G", "polymerase ribozyme fitness (log ratio)": -2.24}
{"variant": "C49A G117A", "polymerase ribozyme fitness (log ratio)": -1.89}
{"variant": "C49A G122A", "polymerase ribozyme fitness (log ratio)": -0.428}
{"variant": "C49A G128C", "polymerase ribozyme fitness (log ratio)": -3.42}
{"variant": "C49A U55G A74C U81G A90G G117U", "polymerase ribozyme fitness (log ratio)": -2.62}
{"variant": "C49A U78C", "polymerase ribozyme fitness (log ratio)": -0.24}
{"variant": "C49A U81A A90U C123U", "polymerase ribozyme fitness (log ratio)": -1.24}
{"variant": "C49A U81A U87G", "polymerase ribozyme fitness (log ratio)": -0.13}
{"variant": "C49A U81C", "polymerase ribozyme fitness (log ratio)": -2.67}
{"variant": "C49A U92C", "polymerase ribozyme fitness (log ratio)": -1.43}
{"variant": "C49A U92G", "polymerase ribozyme fitness (log ratio)": -3.98}
{"variant": "C49A U112A", "polymerase ribozyme fitness (log ratio)": 1.49}
{"variant": "C49A U116G", "polymerase ribozyme fitness (log ratio)": -2.39}
{"variant": "C49A U133A", "polymerase ribozyme fitness (log ratio)": -0.928}
{"variant": "C49G A50U C72A C94A", "polymerase ribozyme fitness (log ratio)": -2.42}
{"variant": "C49G A74C G113A", "polymerase ribozyme fitness (log ratio)": -2.39}
{"variant": "C49G A95U A111G", "polymerase ribozyme fitness (log ratio)": -0.422}
{"variant": "C49G C53A C64U", "polymerase ribozyme fitness (log ratio)": -0.365}
{"variant": "C49G C53A G57A C85A C88A C115G", "polymerase ribozyme fitness (log ratio)": -3.29}
{"variant": "C49G C53G G69C C72U", "polymerase ribozyme fitness (log ratio)": -1.21}
{"variant": "C49G C56A", "polymerase ribozyme fitness (log ratio)": -2.63}
{"variant": "C49G C56A C94U A111G", "polymerase ribozyme fitness (log ratio)": -1.5}
{"variant": "C49G C56G U87A G117A", "polymerase ribozyme fitness (log ratio)": -4.51}
{"variant": "C49G C62U", "polymerase ribozyme fitness (log ratio)": -0.813}
{"variant": "C49G C64A G77U A83U G120U", "polymerase ribozyme fitness (log ratio)": -6.63}
{"variant": "C49G C70U", "polymerase ribozyme fitness (log ratio)": -1.3}
{"variant": "C49G C72G G120C", "polymerase ribozyme fitness (log ratio)": -0.782}
{"variant": "C49G C76U U87C", "polymerase ribozyme fitness (log ratio)": -1.3}
{"variant": "C49G C79U U96G", "polymerase ribozyme fitness (log ratio)": -0.996}
{"variant": "C49G C85G", "polymerase ribozyme fitness (log ratio)": -2.67}
{"variant": "C49G C89G", "polymerase ribozyme fitness (log ratio)": -2.16}
{"variant": "C49G C101A", "polymerase ribozyme fitness (log ratio)": -1.3}
{"variant": "C49G C115G G135U", "polymerase ribozyme fitness (log ratio)": -3.4}
{"variant": "C49G C123U", "polymerase ribozyme fitness (log ratio)": 0.717}
{"variant": "C49G C124G", "polymerase ribozyme fitness (log ratio)": 1.58}
{"variant": "C49G G51U U54G", "polymerase ribozyme fitness (log ratio)": -2.34}
{"variant": "C49G G52A C82G A84G A121U", "polymerase ribozyme fitness (log ratio)": 0.784}
{"variant": "C49G G57A U109A", "polymerase ribozyme fitness (log ratio)": -6.29}
{"variant": "C49G G57U G63A A119G U133G", "polymerase ribozyme fitness (log ratio)": -0.878}
{"variant": "C49G G58C", "polymerase ribozyme fitness (log ratio)": -3.36}
{"variant": "C49G G60C A119U U133A", "polymerase ribozyme fitness (log ratio)": -2.93}
{"variant": "C49G G60U G110A", "polymerase ribozyme fitness (log ratio)": -1.76}
{"variant": "C49G G61A", "polymerase ribozyme fitness (log ratio)": -0.914}
{"variant": "C49G G61U C88A", "polymerase ribozyme fitness (log ratio)": -1.08}
{"variant": "C49G G63U U130G", "polymerase ribozyme fitness (log ratio)": -2.28}
{"variant": "C49G G65U", "polymerase ribozyme fitness (log ratio)": -4.97}
{"variant": "C49G G69A A119U U133A", "polymerase ribozyme fitness (log ratio)": -3.06}
